Experimental data reported in publication PMC6299093, “BRCA2 controls DNA:RNA hybrid level at DSBs by mediating RNase H2 recruitment”.

Tests used:
BRCA1 [1] = molecular target: T1, BRCA1 (Homo sapiens, UniProt P38398 1-1863); assay: EMSA; 1 mM EDTA; 10 nM substrate; 25 mM Tris-HCl pH 7.5, 90 mM KCl, 1 mM EDTA, 1 mM DTT, 0.1 mg/ml BSA, RNaseOUT; 37 C 30 min; 10 nM substrate (competition: 1 nM, 10 + 10 min); 6% native PAGE at 4 C; conditions: protein: recombinant; tags: C-terminal 10xHis; N-terminal 2xMBP cleaved off with PreScission; blunt
BRCA1;BARD1 [2] = molecular target: T2, BRCA1;BARD1 (Homo sapiens;Homo sapiens, UniProt P38398;Q99728 1-1863;1-777, |); assay: EMSA; 1 mM EDTA; 10 nM substrate; resistant to increasing salt (Supplementary Fig. 5a); 25 mM Tris-HCl pH 7.5, 90 mM KCl, 1 mM EDTA, 1 mM DTT, 0.1 mg/ml BSA, RNaseOUT; 37 C 30 min; 10 nM substrate (competition: 1 nM, 10 + 10 min); 6% native PAGE at 4 C; conditions: protein: recombinant;recombinant; tags: C-terminal 10xHis; N-terminal 2xMBP cleaved off with PreScission;; copies: 1;1; blunt
BRCA1 [3] = molecular target: T1, BRCA1; assay: EMSA; 1 mM EDTA; 10 nM substrate; affinity comparable to dsDNA; 25 mM Tris-HCl pH 7.5, 90 mM KCl, 1 mM EDTA, 1 mM DTT, 0.1 mg/ml BSA, RNaseOUT; 37 C 30 min; 10 nM substrate (competition: 1 nM, 10 + 10 min); 6% native PAGE at 4 C; conditions: protein: recombinant; tags: C-terminal 10xHis; N-terminal 2xMBP cleaved off with PreScission; blunt
BRCA1;BARD1 [4] = molecular target: T2, BRCA1;BARD1; assay: EMSA; 1 mM EDTA; 10 nM substrate; affinity comparable to dsDNA; resistant to increasing salt (Supplementary Fig. 5a); 25 mM Tris-HCl pH 7.5, 90 mM KCl, 1 mM EDTA, 1 mM DTT, 0.1 mg/ml BSA, RNaseOUT; 37 C 30 min; 10 nM substrate (competition: 1 nM, 10 + 10 min); 6% native PAGE at 4 C; conditions: protein: recombinant;recombinant; tags: C-terminal 10xHis; N-terminal 2xMBP cleaved off with PreScission;; copies: 1;1; blunt

B1: X12-3/X12-4C dsDNA 50 bp (dsDNA)
DNA 1: GACGTCATAGACGATTACATTGCTAGGACATGCTGTCTAGAGACTATCGC
DNA 2: GCGATAGTCTCTAGACAGCATGTCCTAGCAATGTAATCGTCTATGACGTC
binding result (BRCA1 [1]): binds
binding result (BRCA1;BARD1 [2]): binds

B2: X12-3 DNA/X12-4C RNA hybrid 50 bp (DNA:RNA)
DNA: B1 DNA 1
RNA: GCGAUAGUCUCUAGACAGCAUGUCCUAGCAAUGUAAUCGUCUAUGACGUC
modifications: second strand RNA
binding result (BRCA1 [3]): binds
binding result (BRCA1;BARD1 [4]): binds
